In patent US20250197491A1 (MACOMICS, published 2025):

What was measured:
[1] = target: T1, Human LILRB1 (D1-D2) fused to mouse IgG2a Fc (human); assay: ELISA, antigen coated, 10 nM antibody
T1 construct: also called truncated (D1-D2) version of the LILRB1 ecto-domain
Source text: (§1) FIG. 3. Mixed LILRB1 and LILRB2 expression in TAMs from melanoma cancer patients. Analysis of LILRB1 and LILRB2 detection in macrophages in pre- and post-anti-PD-1 and/or anti-CTLA-4 therapy treated melanoma patients (n=33) is shown using Smart-seq2 data from Sade-Feldman et al. https://pubmed.ncbi.nlm.nih.gov/30633907/FIG. 4. Binding to domains of human LILRB1. Plates were coated with recombinant full length LILRB1 ectodomain (SEQ ID NO: 41) or a protein comprising domain 1 and 2 of human LILRB1 protein (SEQ ID NO: 42), and then incubated with 10 nM Clones 1-5, Reference Ab 1, and Isotype control. The bound antibodies were detected using HRP-labeled secondary antibodies and the results were plotted on the graph as absorbance measured at 450 nm.
(§2) Binding to allelic forms of LILRB1. There are 4 major allelic variants of human LILRB1 protein ectodomain. The variants of LILRB1 were expressed as recombinant proteins comprising a modified LILRB1 ectodomain and mouse IgG2 Fc region (SEQ ID NO: 50 and 51) in suspension CHO cells, and purified by using techniques that were known in the art. These recombinant proteins were then used in the direct enzyme-linked immunosorbent assay (ELISA) to determine the antibodies potential to bind different allelic forms of LILRB1. In short, Maxisorp (Nunc) or similar immune-assay plates were coated with solutions of target proteins in PBS, at 4° C., overnight. Plates were then washed with PBS, blocked with 5% milk in PBS, and washed again. Test antibodies diluted in PBS were then added to the plates and incubated at room temperature for at least 1h. Plates were subsequently washed with PBS/0.05% Tween-20 (PBST) and incubated with a solution of horse radish peroxidase (HRP) labelled secondary antibodies at room temperature for at least 1 h. After washing with PBST and PBS, bound antibodies were detected using the 3,3′,5,5;-tetramethylbenzidine (TMB) chromogenic solution. After 5 to 10 minutes, the reaction was stopped with 1% sulphuric acid and absorbance read at 450 nm.
(§3) There are four major allelic variants within the ecto-domain of LILRB1 in human population [Human Molecular Genetics, 2005, Vol. 14, 2469-2480]; namely c.203T>C (L68P), c.277G>A (A93T), c.425T>C (I142T), and c.464G>T (S155I).

[2] = target: T2, human LILRB1 ectodomain fused to mIgG2a Fc (human); assay: ELISA, antigen coated, 10 nM antibody
T2 construct: also called human LILRB1-mIgG2a; full length LILRB1 ectodomain
T2 sequence (chain, as listed by the source limits assumed): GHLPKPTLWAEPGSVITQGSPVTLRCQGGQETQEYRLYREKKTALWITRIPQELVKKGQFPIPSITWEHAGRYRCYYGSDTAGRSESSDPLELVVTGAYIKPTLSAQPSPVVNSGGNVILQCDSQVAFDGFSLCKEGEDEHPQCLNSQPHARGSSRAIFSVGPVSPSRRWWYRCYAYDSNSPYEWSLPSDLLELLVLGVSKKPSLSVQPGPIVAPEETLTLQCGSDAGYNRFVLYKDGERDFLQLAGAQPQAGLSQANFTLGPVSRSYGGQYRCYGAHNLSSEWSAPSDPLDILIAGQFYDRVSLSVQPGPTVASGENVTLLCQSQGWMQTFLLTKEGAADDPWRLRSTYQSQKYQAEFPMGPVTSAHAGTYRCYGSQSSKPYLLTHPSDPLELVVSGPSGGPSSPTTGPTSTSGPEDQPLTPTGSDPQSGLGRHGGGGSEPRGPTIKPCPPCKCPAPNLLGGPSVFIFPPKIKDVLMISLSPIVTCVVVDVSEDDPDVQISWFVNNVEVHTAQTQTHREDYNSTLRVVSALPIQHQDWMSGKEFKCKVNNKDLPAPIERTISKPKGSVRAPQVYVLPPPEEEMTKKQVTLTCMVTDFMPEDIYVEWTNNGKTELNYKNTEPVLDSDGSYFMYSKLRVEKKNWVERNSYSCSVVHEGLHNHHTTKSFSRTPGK
Source text: as §1, §2, §3

Human full length LILRB1 = target: T3, Human full length LILRB1 (human, UniProt Q8NHL6 24-650); assay: flow cytometry on HEK293 cells overexpressing human LILRB1
T3 construct: Over-expressed on HEK293 cells for flow cytometry; also called LILRB1 on HEK293 cells; cell membrane embedded LILRB1
T3 sequence (Q8NHL6 24-650 limits assumed): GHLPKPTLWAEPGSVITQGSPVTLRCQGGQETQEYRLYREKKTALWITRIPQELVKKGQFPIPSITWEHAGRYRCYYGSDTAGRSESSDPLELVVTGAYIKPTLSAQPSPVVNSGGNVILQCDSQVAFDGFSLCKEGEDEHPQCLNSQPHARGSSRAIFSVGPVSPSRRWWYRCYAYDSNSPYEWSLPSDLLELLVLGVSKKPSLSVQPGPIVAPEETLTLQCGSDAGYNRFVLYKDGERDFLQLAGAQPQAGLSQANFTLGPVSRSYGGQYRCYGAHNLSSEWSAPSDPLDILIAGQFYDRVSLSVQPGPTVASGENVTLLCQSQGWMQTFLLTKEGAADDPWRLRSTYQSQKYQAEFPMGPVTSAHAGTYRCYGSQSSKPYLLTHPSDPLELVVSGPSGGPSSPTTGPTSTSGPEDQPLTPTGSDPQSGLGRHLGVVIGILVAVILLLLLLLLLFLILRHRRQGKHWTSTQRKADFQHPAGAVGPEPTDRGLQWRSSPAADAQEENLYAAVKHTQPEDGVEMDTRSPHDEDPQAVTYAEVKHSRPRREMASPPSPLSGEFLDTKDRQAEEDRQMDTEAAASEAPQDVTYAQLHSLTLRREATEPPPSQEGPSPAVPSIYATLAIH
Experimental: FIG. 5. Binding to LILRB1 over-expressing cell line. HEK293 cells overexpressing full length human LILRB1 (SEQ ID NO: 45) were incubated with various concentrations of test antibodies (Antibody 1 to 5 and Reference Ab 1). The bound antibodies were detected using PE-labeled secondary antibodies and analyzed by flow cytometry. A) Plot showing mean fluorescence intensity (MFI), B) EC50 values calculated using data from panel A.
Binding to human LILRB1 and LILRB2. HEK293 cells stably expressing full length human LILRB1 (SEQ ID NO: 45), or LILRB2 (SEQ ID NO: 46), or wild-type cells were detached from the culture plates using methods known in art. […] The extent of antibody binding to cells stably expressing full-length human LILRB1, or full-length human LILRB2, was determined by flow cytometry and quantified using geometric mean of the fluorescent signal (GEOM).
The ability of selected anti-LILRB-1 antibodies to bind to the LILRB1 receptor in its native context of the cell membrane was investigated by flow cytometry. HEK293 cells over-expressing full length human LILRB1 (SEQ ID NO: 45) were incubated with the increasing amounts of the antibodies and the cell bound antibodies were detected using PE-labelled secondary antibodies using a flow-cytometer.

Human full length LILRB2 [3] = target: T4, Human full length LILRB2 (human, UniProt Q8N423 22-597); assay: flow cytometry on HEK293 cells overexpressing human LILRB2
T4 construct: Over-expressed on HEK293 cells for flow cytometry; Also used here as the parent protein of the D3-D4 peptide microarrays; also called LILRB2 on HEK293 cells
T4 sequence (Q8N423 other isoform, or with tags, fused parts or gaps limits assumed): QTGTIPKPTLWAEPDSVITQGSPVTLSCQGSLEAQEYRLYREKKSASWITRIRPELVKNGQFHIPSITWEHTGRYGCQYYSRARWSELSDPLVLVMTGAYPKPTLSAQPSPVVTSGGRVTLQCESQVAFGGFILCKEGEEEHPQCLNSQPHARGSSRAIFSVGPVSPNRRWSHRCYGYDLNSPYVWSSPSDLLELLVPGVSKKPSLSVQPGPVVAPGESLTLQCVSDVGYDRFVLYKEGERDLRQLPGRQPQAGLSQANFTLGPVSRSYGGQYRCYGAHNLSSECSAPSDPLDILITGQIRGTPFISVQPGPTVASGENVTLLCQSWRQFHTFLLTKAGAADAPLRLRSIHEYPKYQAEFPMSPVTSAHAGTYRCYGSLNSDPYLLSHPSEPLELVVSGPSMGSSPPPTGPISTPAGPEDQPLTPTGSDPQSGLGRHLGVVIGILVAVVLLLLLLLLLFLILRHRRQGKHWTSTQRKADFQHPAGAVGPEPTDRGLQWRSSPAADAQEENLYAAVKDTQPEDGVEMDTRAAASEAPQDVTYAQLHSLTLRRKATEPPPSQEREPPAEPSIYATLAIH
Experimental: FIG. 7. Binding to LILRB2 over-expressing cell line. HEK293 cells overexpressing full length human LILRB2 (SEQ ID NO: 46) were incubated with various concentrations of test antibodies (Antibody 1 to 5 and Reference Antibody 1).
Binding to human LILRB1 and LILRB2. HEK293 cells stably expressing full length human LILRB1 (SEQ ID NO: 45), or LILRB2 (SEQ ID NO: 46), or wild-type cells were detached from the culture plates using methods known in art. The cells were then incubated with anti-LILRB1 Ab clones at different concentrations followed by incubation with fluorescently labelled secondary antibodies. The extent of antibody binding to cells stably expressing full-length human LILRB1, or full-length human LILRB2, was determined by flow cytometry and quantified using geometric mean of the fluorescent signal (GEOM).

Human full length LILRB2 [4] = target: T4, Human full length LILRB2; assay: flow cytometry, displacement of PE-labelled HLA-A2, HLA-E and HLA-G multimers from HEK293 cells overexpressing LILRB2
Experimental: To investigate if the Antibodies 1 to 5 could neutralize binding of other HLA-As to LILRB1 or to LILRB2, HEK293 cells overexpressing the receptors were incubated with constant concentrations of PE-labelled HLA-A2, HLA-E, and HLA-G multimers and increasing concentrations of Antibodies 1 to 5 or the reference antibodies. The ability to neutralize binding of HLA to the cells was determined by flow cytometry (FIG. 21). None of Antibodies 1 to 5 neutralized binding of HLA-A (A), HLA-E (B), and […] to LILRB1 protein, up to the concentrations of 100 nM, whereas Reference 1 antibody (LILRB1 specific) and Reference 3 antibody (LILRB1/2 specific) neutralized the binding with an IC₅₀ in the sub- or low-nM range. Similarly, none of Antibodies 1 to 5 neutralised efficiently the binding of HLA-A (E) and HLA-G (G). […] Reference Antibody 2 (LILRB2 specific) and Reference Antibody 3 (LILRB1/2 specific), inhibited the binding for all HLAs, with IC₅₀ with sub- or low-nM range.

T1 sequence (chain, as listed by the source limits assumed): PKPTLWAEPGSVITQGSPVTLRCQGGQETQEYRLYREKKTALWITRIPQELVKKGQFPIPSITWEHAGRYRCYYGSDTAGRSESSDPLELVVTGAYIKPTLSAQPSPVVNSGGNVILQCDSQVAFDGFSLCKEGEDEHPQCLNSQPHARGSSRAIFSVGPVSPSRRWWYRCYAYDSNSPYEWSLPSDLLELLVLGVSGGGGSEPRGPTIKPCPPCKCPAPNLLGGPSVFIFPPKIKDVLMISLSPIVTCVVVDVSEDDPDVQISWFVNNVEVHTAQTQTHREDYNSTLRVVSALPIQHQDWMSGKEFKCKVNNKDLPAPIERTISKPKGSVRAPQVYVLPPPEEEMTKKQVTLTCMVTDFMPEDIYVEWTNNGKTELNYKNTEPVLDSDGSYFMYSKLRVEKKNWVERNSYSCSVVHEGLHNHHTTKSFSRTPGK

binding result [1]	binding result [2]	EC50 (Human full length LILRB1) [nM]	binding result (Human full length LILRB2 [3])	binding result (Human full length LILRB2 [4])	Binder
binds	binds	0.73	no binding	–	Reference Antibody 1 (anti-human LILRB1 Ab) (antibody, V domains shown) VH: DVQLQGSGPGLVKPSETLSLTCSVTGYSITSGYYWNWIRQFPGKKLEWMGYISYDGSNNYNPSLKNRITISRDTSKNQFSLKLNSVTAADTATYYCAHGYSYYYAMDAWGQGTSVTVSS VL: DIQMTQSPSSLSASVGDRVTITCRTSQDISNYLNWYQQKPGKAVKLLISYTSRLHSGVPSRFSGSGSGTDYTLTISSLQPEDFATYYCQQGNTLPTFGQGTKLEIK
–	–	–	–	binds	Reference antibody 2 (anti-human LILRB2 Ab) (antibody, human IgG4 S228P, lambda, V domains shown) VH: EVQLQQWGAGLLKPSETLSLTCAVYGGSFSGYYWSWIRQPPGKGLEWIGEINHAGSTNYNPSLKSRVTISVDTSKNQFSLKLSSVTAADTAVYYCARLPTRWVTTRYFDLWGRGTLVTVSS VL: ESVLTQPPSVSGAPGQRVTISCTGSSSNIGAGYDVHWYQQLPGTAPKLLIYGDSNRPSGVPDRFSVSKSGASASLAITGLQAEDEADYYCQSFDNSLSAYVFGGGTQLTVLG
